Laboratory results as given in patent publication US20200199533A1 (KING ABDULLAH UNIVERSITY OF SCIENCE AND TECHNOLOGY, published 2020).

Assays:
[1] = target: CD44 (HCELL), native glycoprotein from human HSPCs (KG1a, CD34^pos fraction) (human) (UniProt P16070); assay: SPR; CD44 captured from KG1a lysate on Hermes-3-mAb, E-Ig injected, 150 mM NaCl; apparent rate constant; 2nd experiment
[2] = target: T1, CD34, native glycoprotein from human HSPCs (KG1a, CD34^pos-BM, CD34^pos-UCB, CD34^pos-AML) (human, UniProt P28906 32-385, native glycosylation (about 120-130 kDa form); sialylated O-glycans and tyrosine sulfation are shown to matter for selectin binding); assay: SPR; CD34 captured from KG1a lysate on 563-mAb, E-Ig injected, 150 mM NaCl; apparent rate constant; mean ± SEM
T1 construct: mature; also called E-selL CD34
T1 sequence (looked up): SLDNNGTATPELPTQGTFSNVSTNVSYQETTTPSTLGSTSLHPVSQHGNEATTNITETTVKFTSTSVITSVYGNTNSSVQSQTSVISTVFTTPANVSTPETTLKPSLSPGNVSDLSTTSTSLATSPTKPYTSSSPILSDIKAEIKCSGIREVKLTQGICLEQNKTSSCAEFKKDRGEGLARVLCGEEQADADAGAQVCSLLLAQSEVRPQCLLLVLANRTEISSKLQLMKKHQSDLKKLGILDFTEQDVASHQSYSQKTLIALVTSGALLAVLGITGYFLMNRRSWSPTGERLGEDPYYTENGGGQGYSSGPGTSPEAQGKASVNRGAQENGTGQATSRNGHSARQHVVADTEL

[3] = target: T1, CD34, native glycoprotein from human …; assay: SPR; CD34 captured from KG1a lysate on 563-mAb, E-Ig injected (3.9-2000 nM), 150 mM NaCl; steady-state model; mean ± SEM

Sequence of CD44 (HCELL), native glycoprotein from human HSPCs (KG1a, CD34^pos fraction) (human) (P16070 21-742): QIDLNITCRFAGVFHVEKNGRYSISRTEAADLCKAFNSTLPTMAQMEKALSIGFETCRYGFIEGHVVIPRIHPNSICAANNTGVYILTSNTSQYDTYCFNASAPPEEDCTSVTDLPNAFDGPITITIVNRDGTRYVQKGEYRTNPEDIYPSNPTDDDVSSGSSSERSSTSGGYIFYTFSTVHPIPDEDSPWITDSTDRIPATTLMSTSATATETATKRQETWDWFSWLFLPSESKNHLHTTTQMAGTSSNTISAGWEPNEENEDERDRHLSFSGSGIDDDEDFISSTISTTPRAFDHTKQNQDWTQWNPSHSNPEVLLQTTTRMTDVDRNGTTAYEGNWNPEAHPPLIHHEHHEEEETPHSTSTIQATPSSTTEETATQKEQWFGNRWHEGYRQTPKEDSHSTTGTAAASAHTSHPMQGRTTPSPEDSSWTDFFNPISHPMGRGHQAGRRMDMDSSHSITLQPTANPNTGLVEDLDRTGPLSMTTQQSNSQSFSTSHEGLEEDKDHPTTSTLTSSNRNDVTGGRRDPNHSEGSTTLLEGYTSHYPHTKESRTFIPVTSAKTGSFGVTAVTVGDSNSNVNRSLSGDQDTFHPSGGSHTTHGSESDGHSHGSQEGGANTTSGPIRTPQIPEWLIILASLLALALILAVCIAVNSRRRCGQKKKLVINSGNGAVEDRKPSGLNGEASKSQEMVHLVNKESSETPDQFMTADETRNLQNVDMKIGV

B1: recombinant E-selectin human immunoglobulin chimeric protein (Fc fusion)
chain: WSYNTSTEAMTYDEASAYCQQRYTHLVAIQNKEEIEYLNSILSYSPSYYWIGIRKVNNVWVWVGTQKPLTEEAKNWAPGEPNNRQKDEDCVEIYIKREKDVGMWNDERCSKKKLALCYTAACTNTSCSGHGECVETINNYTCKCDPGFSGLKCEQIVNCTALESPEHGSLVCSHPLGNFSYNSSCSISCDRGYLPSSMETMQCMSSGEWSAPIPACNVVECDAVTNPANGFVECFQNPGSFPWNTTCTFDCEEGFELMGAQSLQCTSSGNWDNEKPTCKAVTCRAVRQPQNGSVRCSHSPAGEFTFKSSCNFTCEEGFMLQGPAQVECTTQGQWTQQIPVCEAFQCTALSNPERGYMNCLPSASGSFRYGSSCEFSCEQGFVLKGSKRLQCGPTGEWDNEKPTCEAVRCDAVHQPPKGLVRCAHSPIGEFTYKSSCAFSCEEGFELHGSTQLECTSQGQWTEEVPSCQVVKCSSLAVPGKINMSCSGEPVFGTVCKFACPEGWTLNGSAARTCGATGHWSGLLPTCEAPTESNIP
koff [1]: 0.0002 s⁻¹
kon [1]: 794 M⁻¹ s⁻¹
koff [2]: 0.00026 s⁻¹
kon [2]: 1230 M⁻¹ s⁻¹
Kd [3]: 237 nM
